Substitutions are numbered along the chain they refer to.
Key:
[1] = target: T1, BfiI-C (C-terminal DNA-binding domain) (UniProt Q9F4C9 193-358); test: X-ray crystallography
T1 sequence: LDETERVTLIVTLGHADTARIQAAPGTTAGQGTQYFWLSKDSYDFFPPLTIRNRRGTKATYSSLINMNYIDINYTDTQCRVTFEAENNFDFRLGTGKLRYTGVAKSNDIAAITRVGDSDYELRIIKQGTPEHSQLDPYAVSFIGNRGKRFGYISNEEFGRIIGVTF

[2] = target: T2, BfiI Q226A (UniProt Q9F4C9 1-358, Q226A); test: EMSA
T2 sequence: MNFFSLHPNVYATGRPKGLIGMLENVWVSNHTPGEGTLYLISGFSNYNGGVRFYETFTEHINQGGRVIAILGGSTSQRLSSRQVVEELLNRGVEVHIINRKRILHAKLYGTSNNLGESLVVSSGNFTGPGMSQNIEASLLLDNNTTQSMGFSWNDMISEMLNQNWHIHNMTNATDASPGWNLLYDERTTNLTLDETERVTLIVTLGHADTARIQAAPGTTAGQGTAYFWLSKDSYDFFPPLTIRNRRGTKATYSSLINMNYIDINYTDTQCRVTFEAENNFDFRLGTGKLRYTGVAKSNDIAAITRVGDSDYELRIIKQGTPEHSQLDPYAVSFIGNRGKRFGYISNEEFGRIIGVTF

[3] = target: T3, BfiI K250A (UniProt Q9F4C9 1-358, K250A); test: EMSA
T3 sequence: T2 sequence with A226Q, K250A

[4] = target: T4, BfiI E276A (UniProt Q9F4C9 1-358, E276A); test: EMSA
T4 sequence: T2 sequence with A226Q, E276A

[5] = target: T5, BfiI Q223A (UniProt Q9F4C9 1-358, Q223A); test: EMSA
T5 sequence: T2 sequence with Q223A, A226Q

[6] = target: T6, BfiI W229A (UniProt Q9F4C9 1-358, W229A); test: EMSA
T6 sequence: T2 sequence with A226Q, W229A

[7] = target: T7, BfiI Y227A (UniProt Q9F4C9 1-358, Y227A); test: EMSA
T7 sequence: T2 sequence with A226Q, Y227A

[8] = target: T8, BfiI R272A (UniProt Q9F4C9 1-358, R272A); test: EMSA
T8 sequence: T2 sequence with A226Q, R272A

[9] = target: T9, BfiI R291A (UniProt Q9F4C9 1-358, R291A); test: EMSA
T9 sequence: T2 sequence with A226Q, R291A

[10] = target: T10, BfiI R212A (UniProt Q9F4C9 1-358, R212A); test: EMSA
T10 sequence: T2 sequence with R212A, A226Q

[11] = target: T11, BfiI T225A (UniProt Q9F4C9 1-358, T225A); test: EMSA
T11 sequence: T2 sequence with T225A, A226Q

[12] = target: T12, BfiI N245A (UniProt Q9F4C9 1-358, N245A); test: EMSA
T12 sequence: T2 sequence with A226Q, N245A

B1: 12/12 (dsDNA)
DNA 1: AGCACTGGGTCG
DNA 2: CGACCCAGTGCT
binding result [1]: binds

B2: 16SP (dsDNA)
DNA 1: AGCGTAGCACTGGGCT
DNA 2: AGCCCAGTGCTACGCT
binding signal [2]: 50 % of WT KA | binding signal [3]: 2 % of WT KA | binding signal [4]: 10 % of WT KA | binding signal [5]: 100 % of WT KA | binding signal [6]: 1 % of WT KA | binding signal [7]: 5 % of WT KA | binding signal [8]: 1 % of WT KA | binding signal [9]: 2 % of WT KA | binding signal [10]: 2 % of WT KA | binding signal [11]: 10 % of WT KA | binding signal [12]: 100 % of WT KA

Source: publication PMC3973309
